The assay concerns the target T1, Human EpCAM-Fc-his tagged (human).
T1 construct: also called Recombinant polyhistidine-tagged EpCAM-Fc; recombinant EpCAM
Put plainly: BLI (ForteBio Octet), antibody loaded on Protein A tips, recombinant polyhistidine-tagged EpCAM-Fc in solution, 1:1 model. On the procedure:
For Octet analysis, all reagents and samples are brought to room temperature. Protein A sensor tips (ForteBio, #18-5010) are hydrated for 10 minutes in 1×PBS. Assay steps include: 1-2 minutes of equilibration in 1×PBS, 4 minutes of antibody loading (concentration of 50 μg/ml in 1×PBS), 1-2 minutes of baseline stabilization, 4 minutes of antibody:antigen association, and 4 minutes of antibody:antigen dissociation. 1×PBS is used as the matrix throughout. Data are analyzed with Octet Data Analysis software, processed, and fit to a 1:1 binding model to determine kinetic parameters (Kd, kₒₙ and kdiss).
Table A-2 describes approximate EpCAM binding affinity and dissociation rate as determined for Ab#1, Ab#2, Ab#3, Ab#4, Ab#5, Ab#6, Ab#7, Ab#8, Ab#9, Ab#10, Ab#11, Ab#12, and Ab#13.

T1 sequence (chain, as listed by the source): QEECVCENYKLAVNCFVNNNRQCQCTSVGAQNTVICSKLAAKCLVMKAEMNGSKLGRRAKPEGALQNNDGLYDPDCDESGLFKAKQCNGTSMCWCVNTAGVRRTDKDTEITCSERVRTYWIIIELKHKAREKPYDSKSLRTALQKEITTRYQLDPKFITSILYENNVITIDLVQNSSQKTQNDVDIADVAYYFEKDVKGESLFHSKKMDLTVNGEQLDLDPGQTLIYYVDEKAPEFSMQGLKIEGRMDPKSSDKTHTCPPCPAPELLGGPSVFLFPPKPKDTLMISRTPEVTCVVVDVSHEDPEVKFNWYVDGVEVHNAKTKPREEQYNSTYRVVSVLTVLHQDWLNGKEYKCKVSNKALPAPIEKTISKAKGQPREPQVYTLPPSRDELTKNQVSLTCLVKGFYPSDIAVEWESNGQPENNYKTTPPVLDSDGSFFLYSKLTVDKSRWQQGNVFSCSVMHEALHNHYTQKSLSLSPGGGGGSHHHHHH

B1: Ab#3 (bispecific antibody, human IgG1, kappa)
heavy: QLQLQESGPGLVKPSETLSLTCTVSGGSISSSVYYWSWIRQPPGKGLEWIGVIYPSGNTYYSPSLKSRVTISVDTSKNQFSLKLSSVTAADTAVYYCARTIYDLFDIWGQGTMVTVSSASTKGPSVFPLAPSSKSTSGGTAALGCLVKDYFPEPVTVSWNSGALTSGVHTFPAVLQSSGLYSLSSVVTVPSSSLGTQTYICNVNHKPSNTKVDKKVEPKSCDKTHTCPSCPAPEFLGGPSVFLFPPKPKDTLMISRTPEVTCVVVDVSQEDPEVQFNWYVDGVEVHNAKTKPREEQFNSKYRVVSVLTVLHQDWLNGKEYKCKVSNKGLPSSIEKTISKAKGQPREPQVYTLPPSREEMTKNQVSLSCAVKGFYPSDIAVEWESNGQPENNYKTTPPVLDSDGSFFLVSKLTVDKSRWQQGNVFSCSVMHEALHNHYTQKSLSLSKSCDKTGGGGSGGGGSGGGGSGGGGSGGGGSGGGGSGGGGSGGGGSCPSCPAPEFLGGPSVFLFPPKPKDTLMISRTPEVTCVVVDVSQEDPEVQFNWYVDGVEVHNAKTKPREEQFNSDYRVVSVLTVLHQDWLNGKEYKCKVSNKGLPSSIEKTISKAKGQPREPQVYTLPPSREEMTKNQVSLWCLVKGFYPSDIAVEWESNGQPENNYKTTPPVLDSDGSFFLYSKLTVDKSRWQQGNVFSCSVMHEALHNHYTQKSLSLSGECGGGGSGGGGSQVQLVQSGSELKKPGESVKVSCKASGYTFTNYGMNWVRQAPGQGLKWMGWINTYTGESTYADDFKGRFAFSLDTSASTAYLQISSLKAEDTAVYFCARFAIKGDYWGQGTLVTVSSASTGGGGSGGGGSGGGGSGGGGSDIVMTQSPLSLPVTPGEPASISCRSTKSLLHSDGITYLYWYLQKPGQSPQLLIYQLSNLASGVPDRFSSSGSGTDFTLKISRVEAEDEGVYYCAQNLEIPRTFGQGTKVEIK
light: DIQMTQSPSSVSASVGDRVTITCRASQGISSWLAWYQQKPGKAPKLLIYAASSLQSGVPSRFSGSGSGTDFTLTISSLQPEDFATYYCLQANSFPPTFGGGTKVEIKRTVAAPSVFIFPPSDEQLKSGTASVVCLLNNFYPREAKVQWKVDNALQSGNSQESVTEQDSKDSTYSLSSTLTLSKADYEKHKVYACEVTHQGLSSPVTKSFNRGEC
notes: Anti-c-Met Fab / tandem Fc / anti-EpCAM scFv TFcBA; also called Antibody #3
With B1, the Kd was found to be 17 nM and the koff amounted to 0.00174 s⁻¹.

B2: Ab#6 (bispecific antibody, human IgG1, kappa)
heavy: QLQLQESGPGLVKPSETLSLTCTVSGGSISSSVYYWSWIRQPPGKGLEWIGVIYPSGNTYYSPSLKSRVTISVDTSKNQFSLKLSSVTAADTAVYYCARTIYDLFDIWGQGTMVTVSSASTKGPSVFPLAPSSKSTSGGTAALGCLVKDYFPEPVTVSWNSGALTSGVHTFPAVLQSSGLYSLSSVVTVPSSSLGTQTYICNVNHKPSNTKVDKKVEPKSCDKTHTCPSCPAPEFLGGPSVFLFPPKPKDTLMISRTPEVTCVVVDVSQEDPEVQFNWYVDGVEVHNAKTKPREEQFNSKYRVVSVLTVLHQDWLNGKEYKCKVSNKGLPSSIEKTISKAKGQPREPQVYTLPPSREEMTKNQVSLSCAVKGFYPSDIAVEWESNGQPENNYKTTPPVLDSDGSFFLVSKLTVDKSRWQQGNVFSCSVMHEALHNHYTQKSLSLSKSCDKTGGGGSGGGGSGGGGSGGGGSGGGGSGGGGSGGGGSGGGGSCPSCPAPEFLGGPSVFLFPPKPKDTLMISRTPEVTCVVVDVSQEDPEVQFNWYVDGVEVHNAKTKPREEQFNSDYRVVSVLTVLHQDWLNGKEYKCKVSNKGLPSSIEKTISKAKGQPREPQVYTLPPSREEMTKNQVSLWCLVKGFYPSDIAVEWESNGQPENNYKTTPPVLDSDGSFFLYSKLTVDKSRWQQGNVFSCSVMHEALHNHYTQKSLSLSGECGGGGSGGGGSDIVMTQSPLSLPVTPGEPASISCRSTKSLLHSDGITYLYWYLQKPGQSPQLLIYQLSNLASGVPDRFSSSGSGTDFTLKISRVEAEDEGVYYCAQNLEIPRTFGGGTKLEIKRTGGGGSGGGGSGGGGSGGGGSQVQLVQSGAEVKKPGESVKISCKASGYTFTNYGMNWVRQAPGQGLKWMGWINTYTGESTYADDFKGRFAFSLDTSASTAYLQLSSLRSEDTAVYFCARFAIKGDYWGQGTLVTVSS
light: DIQMTQSPSSVSASVGDRVTITCRASQGISSWLAWYQQKPGKAPKLLIYAASSLQSGVPSRFSGSGSGTDFTLTISSLQPEDFATYYCLQANSFPPTFGGGTKVEIKRTVAAPSVFIFPPSDEQLKSGTASVVCLLNNFYPREAKVQWKVDNALQSGNSQESVTEQDSKDSTYSLSSTLTLSKADYEKHKVYACEVTHQGLSSPVTKSFNRGEC
notes: Anti-c-Met Fab / tandem Fc / anti-EpCAM scFv TFcBA; also called Antibody #6
In the case of B2, the Kd is 11.2 nM and the koff was 0.00122 s⁻¹.

B3: Ab#4 (bispecific antibody, human IgG1, kappa)
heavy: QLQLQESGPGLVKPSETLSLTCTVSGGSISSSVYYWSWIRQPPGKGLEWIGVIYPSGNTYYSPSLKSRVTISVDTSKNQFSLKLSSVTAADTAVYYCARTIYDLFDIWGQGTMVTVSSASTKGPSVFPLAPSSKSTSGGTAALGCLVKDYFPEPVTVSWNSGALTSGVHTFPAVLQSSGLYSLSSVVTVPSSSLGTQTYICNVNHKPSNTKVDKKVEPKSCDKTHTCPSCPAPEFLGGPSVFLFPPKPKDTLMISRTPEVTCVVVDVSQEDPEVQFNWYVDGVEVHNAKTKPREEQFNSKYRVVSVLTVLHQDWLNGKEYKCKVSNKGLPSSIEKTISKAKGQPREPQVYTLPPSREEMTKNQVSLSCAVKGFYPSDIAVEWESNGQPENNYKTTPPVLDSDGSFFLVSKLTVDKSRWQQGNVFSCSVMHEALHNHYTQKSLSLSKSCDKTGGGGSGGGGSGGGGSGGGGSGGGGSGGGGSGGGGSGGGGSCPSCPAPEFLGGPSVFLFPPKPKDTLMISRTPEVTCVVVDVSQEDPEVQFNWYVDGVEVHNAKTKPREEQFNSDYRVVSVLTVLHQDWLNGKEYKCKVSNKGLPSSIEKTISKAKGQPREPQVYTLPPSREEMTKNQVSLWCLVKGFYPSDIAVEWESNGQPENNYKTTPPVLDSDGSFFLYSKLTVDKSRWQQGNVFSCSVMHEALHNHYTQKSLSLSGECGGGGSGGGGSDIVMTQSPLSLPVTPGEPASISCRSTKSLLHSDGITYLYWYLQKPGQSPQLLIYQLSNLASGVPDRFSSSGSGTDFTLKISRVEAEDEGVYYCAQNLEIPRTFGQGTKVEIKRTGGGGSGGGGSGGGGSGGGGSGQVQLVQSGSELKKPGESVKVSCKASGYTFTNYGMNWVRQAPGQGLKWMGWINTYTGESTYADDFKGRFAFSLDTSASTAYLQISSLKAEDTAVYFCARFAIKGDYWGQGTLVTVSS
light: DIQMTQSPSSVSASVGDRVTITCRASQGISSWLAWYQQKPGKAPKLLIYAASSLQSGVPSRFSGSGSGTDFTLTISSLQPEDFATYYCLQANSFPPTFGGGTKVEIKRTVAAPSVFIFPPSDEQLKSGTASVVCLLNNFYPREAKVQWKVDNALQSGNSQESVTEQDSKDSTYSLSSTLTLSKADYEKHKVYACEVTHQGLSSPVTKSFNRGEC
notes: Anti-c-Met Fab / tandem Fc / anti-EpCAM scFv TFcBA; also called Antibody #4
B3: the Kd stood at 19.4 nM and the off-rate (koff) worked out at 0.00174 s⁻¹.

These data come from patent publication US20140302035A1 (MERRIMACK PHARMACEUTICALS, published 2014).
